The values that follow are results of earlier work, collected in PMC4048747.

For the data set, the target named is IGF-1R (UniProt P08069).
Sequence of UniProt P08069 (P08069 31-736, chain 1 of 2): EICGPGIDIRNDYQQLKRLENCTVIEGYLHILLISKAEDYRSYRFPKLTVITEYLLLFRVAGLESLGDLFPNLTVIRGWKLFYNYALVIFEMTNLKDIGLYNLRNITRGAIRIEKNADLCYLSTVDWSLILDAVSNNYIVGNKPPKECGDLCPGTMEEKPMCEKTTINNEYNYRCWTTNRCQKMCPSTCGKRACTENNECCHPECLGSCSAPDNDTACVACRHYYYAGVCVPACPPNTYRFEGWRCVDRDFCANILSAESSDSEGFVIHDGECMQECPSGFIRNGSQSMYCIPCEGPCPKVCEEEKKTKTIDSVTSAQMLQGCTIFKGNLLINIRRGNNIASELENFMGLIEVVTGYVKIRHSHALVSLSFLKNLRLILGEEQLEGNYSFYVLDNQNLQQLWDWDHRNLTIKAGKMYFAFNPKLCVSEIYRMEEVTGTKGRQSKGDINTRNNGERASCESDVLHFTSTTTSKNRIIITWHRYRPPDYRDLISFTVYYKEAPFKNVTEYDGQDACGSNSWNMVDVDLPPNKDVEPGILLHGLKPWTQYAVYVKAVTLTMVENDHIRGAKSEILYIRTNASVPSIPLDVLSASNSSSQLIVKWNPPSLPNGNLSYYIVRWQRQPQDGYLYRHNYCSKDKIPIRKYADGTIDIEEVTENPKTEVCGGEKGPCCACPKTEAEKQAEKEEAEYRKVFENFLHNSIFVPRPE
Sequence of UniProt P08069 (P08069 741-935, chain 2 of 2): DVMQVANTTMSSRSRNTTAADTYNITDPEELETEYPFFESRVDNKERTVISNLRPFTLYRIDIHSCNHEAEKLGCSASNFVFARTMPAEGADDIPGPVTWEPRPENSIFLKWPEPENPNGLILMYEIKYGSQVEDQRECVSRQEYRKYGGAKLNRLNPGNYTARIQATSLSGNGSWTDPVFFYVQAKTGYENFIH

Broadly, the Kd is a measure of binding affinity in units of concentration. Decorin (from UniProt P07585): the equilibrium dissociation constant (Kd) was 0.018 µM.
